Measurements published in IntAct's records for PubMed 28533443.

B1: Complement factor H-related protein 1 (Homo sapiens), Q03591 (parent)
chain: MWLLVSVILISRISSVGGEATFCDFPKINHGILYDEEKYKPFSQVPTGEVFYYSCEYNFVSPSKSFWTRITCTEEGWSPTPKCLRLCFFPFVENGHSESSGQTHLEGDTVQIICNTGYRLQNNENNISCVERGWSTPPKCRSTDTSCVNPPTVQNAHILSRQMSKYPSGERVRYECRSPYEMFGDEEVMCLNGNWTEPPQCKDSTGKCGPPPPIDNGDITSFPLSVYAPASSVEYQCQNLYQLEGNKRITCRNGQWSEPPKCLHPCVISREIMENYNIALRWTAKQKLYLRTGESAEFVCKRGYRLSSRSHTLRTTCWDGKLEYPTCAKR
partner: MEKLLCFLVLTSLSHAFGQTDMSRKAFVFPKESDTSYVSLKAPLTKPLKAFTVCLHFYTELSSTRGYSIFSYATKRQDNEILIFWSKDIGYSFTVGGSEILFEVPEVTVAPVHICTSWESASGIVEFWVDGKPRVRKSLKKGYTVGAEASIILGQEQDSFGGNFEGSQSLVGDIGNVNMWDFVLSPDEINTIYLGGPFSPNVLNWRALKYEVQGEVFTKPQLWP

Variants of: B1
Details: with crp_human CRP

| Variant | effect of a mutation on the interaction |
| --- | --- |
| H157Y;L159V;E175Q | with no effect |
